In patent publication US20240400717A1, “Antibody Binding to CHI3L1 for Treating Cancer” (National Cheng Kung University, priority 2021, published 2024):

Tests used:
[1] = target: human chitotriosidase-1 (CHIT1) (Homo sapiens, UniProt Q13231); assay: ELISA binding specificity, CHIT1; conditions: mAbs 1 μg/ml; coated protein 2.5 μg/ml to 0 μg/ml
Description: (§1) Four selected clones of mAbs including R4-4, R4-54, 293R3-2, and 293R3-4 were further tested for blocking effect on human colorectal (HCT116, SW480, and SW620) and pancreatic cancer cell lines (PANC1 and MiaPaCa-2). […] P values were determined by one-way ANOVA. * P<0.05, ** P<0.01, *** P<0.001, **** P<0.0001. For binding specificity examination, we further coated different concentration of recombinant CHI3L1 protein, and two other major proteins in chitinase family including human chitotriosidase-1 (CHIT1) and CHI3L2 from 2.5 μg/ml to 0 μg/ml, on 96-well plate.

[2] = target: T1, CHI3L1 binding to IL-13Rα2 on A549 cell line (Homo sapiens, UniProt P36222); assay: Functional screen: block of CHI3L1 binding to IL-13Rα2 on A549 cell line; format: cell-based; conditions: A549 cells, compared with CHI3L1 only
T1 construct: host or cells: A549 cells carry the receptor
Excerpt: CHI3L1 is known to associate with different receptors, such as IL-13Rα2 (He et al. 2013), CRTH2 (Zhou et al. 2015), TMEM219 (Lee et al. 2016), and galectin-3 (Zhou et al. 2015). […] Therefore, purified antibody leads were functionally screened for their ability to block CHI3L1 binding to IL-13Rα2 on A549 cell line (FIG. 3A). […] The sequences and defied CDR regions among those monoclonal antibodies are listed and summarized in the sequences list (SEQ ID NOs: 1 to 88) and Table 2, respectively. Anti-CHI3L1 clone R4-2 heavy chain (SEQ ID NO: 1), anti-CHI3L1 clone R4-2 light chain (SEQ ID NO: 2), anti-CHI3L1 clone R4-4 heavy chain (SEQ ID NO: 9), anti-CHI3L1 clone R4-4 light chain (SEQ ID NO: 10), anti-CHI3L1 clone R4-39 heavy chain (SEQ ID NO: 17), anti-CHI3L1 clone R4-39 light chain (SEQ ID NO: 18), anti-CHI3L1 clone R4-53 heavy chain (SEQ ID NO: 25), anti-CHI3L1 clone R4-53 light chain (SEQ ID NO: 26), anti-CHI3L1 clone R4-54 heavy chain (SEQ ID NO: 33), anti-CHI3L1 clone R4-54 light chain (SEQ ID NO: 34), anti-CHI3L1 clone R4-62 heavy chain (SEQ ID NO: 41), anti-CHI3L1 clone R4-62 light chain (SEQ ID NO: 42), anti-CHI3L1 clone R4-63 heavy chain (SEQ ID NO: 49), anti-CHI3L1 clone R4-63 light chain (SEQ ID NO: 50), anti-CHI3L1 clone R4-93 heavy chain (SEQ ID NO: 57), anti-CHI3L1 clone R4-93 light chain (SEQ ID NO: 58), anti-CHI3L1 clone 293R3-2 heavy chain (SEQ ID NO: 65), anti-CHI3L1 clone 293R3-2 light chain (SEQ ID NO: 66), anti-CHI3L1 clone 293R3-4 heavy chain (SEQ ID NO: 73), anti-CHI3L1 clone 293R3-4 light chain (SEQ ID NO: 74), anti-CHI3L1 clone 293R3-5 heavy chain (SEQ ID NO: 81), and anti-CHI3L1 clone 293R3-5 light chain (SEQ ID NO: 82) are shown in sequence listing.

[3] = system: SW480 and SW620 cells; assay: rCHI3L1-induced foci formation; format: cell-based, human
[4] = target: recombinant CHI3L1 protein (Homo sapiens, UniProt P36222); assay: ELISA binding specificity, CHI3L1; conditions: mAbs 1 μg/ml; coated protein 2.5 μg/ml to 0 μg/ml
Description: as §1

[5] = system: MiaPaCa cells; assay: MiaPaCa orthotopic NOD-SCID mice model
Description: Specifically, experimental design of tumor growth inhibition in vivo. MiaPaCa cells (5×10^6) were injected into pancreas of NOD-SCID mice at Day 0. […] Mice were sacrificed on day 34. […] Since fibrosis and angiogenesis are two major issues during tumor progression, we compared the fibrosis and angiogenesis level within each groups.

[6] = system: PANC1 cells; assay: Immunoblot of rCHI3L1-induced AKT and ERK phosphorylation, PANC1; format: cell-based, human; conditions: PANC1, rCHI3L1 100 ng/ml, 20 minutes, different dose of mAbs
Description: The involvement of CHI3L1 in intracellular signaling pathways has been reported. For example, CHI3L1 binding to CD44 activates protein kinase B (AKT) and extracellular signal-regulated kinase (ERK) signaling to promote cancer progression (Chen, Jiang et al. 2021). Thus, we tested whether mAb clones R4-4, R4-54, 293R3-2, and 293R3-4 could attenuate AKT and ERK phosphorylation in human pancreatic (PANC1), colorectal (HCT116), and lung (A549) cancer cell lines. PANC1 cells were treated with rCHI3L1 (100 ng/ml) only or rCHI3L1 with different dose of mAbs as indicated for 20 minutes.

[7] = target: T2, CHI3L2 (Homo sapiens, UniProt Q15782); assay: ELISA binding specificity, CHI3L2; conditions: mAbs 1 μg/ml; coated protein 2.5 μg/ml to 0 μg/ml
T2 sequence (Q15782 27-390): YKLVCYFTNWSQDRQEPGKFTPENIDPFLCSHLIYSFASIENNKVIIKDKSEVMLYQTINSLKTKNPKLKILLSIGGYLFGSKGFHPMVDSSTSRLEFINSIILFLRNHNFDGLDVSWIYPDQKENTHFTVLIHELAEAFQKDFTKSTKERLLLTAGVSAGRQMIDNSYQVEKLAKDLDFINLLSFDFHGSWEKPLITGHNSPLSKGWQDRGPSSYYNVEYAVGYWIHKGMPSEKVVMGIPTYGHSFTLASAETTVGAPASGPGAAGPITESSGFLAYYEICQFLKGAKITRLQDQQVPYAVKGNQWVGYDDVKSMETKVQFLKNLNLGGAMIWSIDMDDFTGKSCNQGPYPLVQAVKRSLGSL
Description: as §1

[8] = system: PANC1 and H460 cells; assay: CCK-8 cell viability assay with rCHI3L1; format: cell-based, human; conditions: PANC1 and H460, rCHI3L1 with mAbs at two doses
Description: PI3K/AKT/mTOR signaling pathway is important in regulating cell proliferation, survival and migration (Xu et al. 2020). Therefore, we investigated the effect of four selected mAbs on cancer cell behaviors. Human pancreatic (PANC1) and large cell cancer of the lung (H460) cells were treated with rCHI3L1 only or together with mAbs at two doses, and then subjected to cell counting kit 8 (CCK-8) cell viability assay. […] P values were determined by one-way ANOVA. * P<0.05, ** P<0.01, *** P<0.001, **** P<0.0001.

recombinant CHI3L1 protein, sequence (P36222 22-383): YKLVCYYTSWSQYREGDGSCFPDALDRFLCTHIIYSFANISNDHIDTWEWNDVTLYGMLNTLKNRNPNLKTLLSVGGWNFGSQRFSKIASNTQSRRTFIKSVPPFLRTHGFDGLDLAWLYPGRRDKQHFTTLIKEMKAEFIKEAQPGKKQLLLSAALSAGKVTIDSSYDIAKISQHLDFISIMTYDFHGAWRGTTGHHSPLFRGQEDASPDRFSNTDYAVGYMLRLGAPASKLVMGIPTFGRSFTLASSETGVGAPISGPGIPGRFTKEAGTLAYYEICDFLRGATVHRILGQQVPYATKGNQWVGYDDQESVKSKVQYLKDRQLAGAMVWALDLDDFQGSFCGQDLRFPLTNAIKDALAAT
T1 sequence (P36222 22-383): as above
human chitotriosidase-1 (CHIT1), sequence (Q13231 22-466): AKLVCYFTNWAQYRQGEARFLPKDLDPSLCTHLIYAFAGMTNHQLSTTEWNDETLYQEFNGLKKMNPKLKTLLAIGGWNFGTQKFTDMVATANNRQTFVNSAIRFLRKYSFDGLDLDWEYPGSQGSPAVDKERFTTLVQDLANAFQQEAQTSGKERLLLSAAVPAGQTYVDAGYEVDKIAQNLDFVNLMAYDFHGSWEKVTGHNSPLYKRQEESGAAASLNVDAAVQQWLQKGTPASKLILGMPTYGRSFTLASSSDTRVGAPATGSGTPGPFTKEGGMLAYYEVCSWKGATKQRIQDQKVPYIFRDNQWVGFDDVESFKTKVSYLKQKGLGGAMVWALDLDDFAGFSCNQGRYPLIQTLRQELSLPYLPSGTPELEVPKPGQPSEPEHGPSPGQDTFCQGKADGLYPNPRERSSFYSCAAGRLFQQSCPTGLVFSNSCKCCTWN

binding specificity: recognition of CHIT1 [1]: no other chitinase proteins | CHI3L1 neutralizing activity [2]: best neutralizing activity | binding specificity: recognition of CHI3L1 [4]: specifically recognized CHI3L1 | binding specificity: recognition of CHI3L2 [7]: no other chitinase proteins
B1: R4-54: fully human anti-CHI3L1 IgG1 mAb, Table 1 No. 34; heavy chain SEQ ID NO: 33, light chain SEQ ID NO: 34 (antibody, listed as Homo sapiens)
VH: QVQLVESGGGVVQPGRSLRLSCAASGFTFSSYGMHWVRQAPGKGLEWVAVISYDGSDKDYADSVKGRFTISRDNSKNTLFLQMNSLRAEDTAVYYCARDDYDSTYYFDNWGQGTTVTVSS
light: SYELTQPPSVSVSPGQTASITCSGDILADQYASWYQQKPGQSPVLVIYHDTKRPSGVPERFSGSTSGNTATLTISGTQAMDEAAYYCQAWDINTAWVFGGGTQLTVLGQPKAAPSVTLFPPSSEELQANKATLVCLISDFYPGAVTVAWKADSSPVKAGVETTTPSKQSNNKYAASSYLSLTPEQWKSHRSYSCQVTHEGSTVEKTVAPTECS
number of foci [3]: decreased in a dose-dependent manner | fibrosis indicated by α-SMA ([5]; comparing to IgG control and gemcitabine groups): obviously decrease | level of CHI3L1 in intratumoral region and plasma ([5]; end of experiment): lower than IgG control group | infiltrated macrophages in tumor sections (F4/80+, CD206+) ([5]; immunofluorescence, 5 mg/kg i.v.): more macrophages other than M2 phenotype | angiogenesis indicated by CD31 expression ([5]; mAb 5 mg/kg i.v., gemcitabine 50 mg/kg i.p.): decreased in every treatment groups | tumor size ([5]; mAb 5 mg/kg i.v., gemcitabine 50 mg/kg i.p., Day 7, 14, 21, 28, sacrificed day 34): smaller than IgG control group | p-AKT and p-ERK levels induced by rCHI3L1 [6]: inhibited p-AKT and p-ERK levels induced by rCHI3L1 in a dose dependent manner | cell viability (CCK-8) [8]: reduced the viability
